Test results published in patent US20120148607A1.

Biological target: c-Met on human cells (HPAF, A549, MKN-45) (human) (UniProt P08581)
Test: cell-based or functional assay

c-Met on human cells (HPAF, A549, MKN-45) (human), sequence (P08581 25-1390): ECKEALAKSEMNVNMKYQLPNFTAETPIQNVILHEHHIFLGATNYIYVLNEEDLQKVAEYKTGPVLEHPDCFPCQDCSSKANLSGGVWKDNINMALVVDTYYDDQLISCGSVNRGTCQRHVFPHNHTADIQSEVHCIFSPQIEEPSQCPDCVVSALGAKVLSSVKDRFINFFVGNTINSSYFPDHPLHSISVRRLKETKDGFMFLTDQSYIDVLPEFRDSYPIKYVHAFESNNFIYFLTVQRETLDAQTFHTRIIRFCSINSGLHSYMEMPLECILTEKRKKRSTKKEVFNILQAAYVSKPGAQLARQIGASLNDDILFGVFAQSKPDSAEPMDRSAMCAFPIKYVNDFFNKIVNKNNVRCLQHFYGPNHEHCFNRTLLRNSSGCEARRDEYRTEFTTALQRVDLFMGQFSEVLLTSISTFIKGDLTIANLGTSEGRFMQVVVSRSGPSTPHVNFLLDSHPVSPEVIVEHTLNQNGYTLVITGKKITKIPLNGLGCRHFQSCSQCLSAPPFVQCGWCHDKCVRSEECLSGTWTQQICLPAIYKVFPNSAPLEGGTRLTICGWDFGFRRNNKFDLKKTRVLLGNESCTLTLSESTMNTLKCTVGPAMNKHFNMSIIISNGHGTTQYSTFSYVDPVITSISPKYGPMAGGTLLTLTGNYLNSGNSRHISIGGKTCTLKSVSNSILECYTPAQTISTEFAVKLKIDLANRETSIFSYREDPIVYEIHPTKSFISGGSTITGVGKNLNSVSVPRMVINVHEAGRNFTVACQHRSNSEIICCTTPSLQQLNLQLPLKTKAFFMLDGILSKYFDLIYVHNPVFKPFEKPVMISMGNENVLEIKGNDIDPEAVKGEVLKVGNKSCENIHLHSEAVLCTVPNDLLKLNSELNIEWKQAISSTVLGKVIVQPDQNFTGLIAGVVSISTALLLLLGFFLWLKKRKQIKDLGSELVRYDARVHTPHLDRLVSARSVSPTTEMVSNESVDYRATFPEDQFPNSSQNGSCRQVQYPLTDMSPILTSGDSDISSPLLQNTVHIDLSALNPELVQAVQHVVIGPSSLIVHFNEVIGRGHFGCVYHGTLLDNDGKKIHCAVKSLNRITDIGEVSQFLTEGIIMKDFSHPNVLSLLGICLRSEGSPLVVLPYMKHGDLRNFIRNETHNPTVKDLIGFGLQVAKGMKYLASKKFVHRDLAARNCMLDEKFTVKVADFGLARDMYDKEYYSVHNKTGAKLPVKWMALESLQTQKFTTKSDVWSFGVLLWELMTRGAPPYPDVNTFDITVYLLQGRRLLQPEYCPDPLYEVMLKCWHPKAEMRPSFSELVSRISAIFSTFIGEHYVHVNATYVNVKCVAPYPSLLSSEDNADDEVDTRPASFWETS

- down-regulation of total c-Met on the surface of MKN-45 cells (flow cytometry): 50 to 60%
Substance: murine 5D5 antibody
